Source: PMC12009414
“And” between values parts separate entries of the source, which are not always exact repeats. Equal entries are not always repeated.

Columns and labels:
Assay in all cases: cryo-EM structure
Settings in all cases: remark: other sources report otherwise
[1] = target: T1, human DNA polymerase θ helicase domain (residues 1-894) (human), O75417
[2] = target: T1, human DNA polymerase θ helicase domain …; remark: listed apart in the source
[3] = target: T1, human DNA polymerase θ helicase domain …; remark: listed apart in the source

B1: human DNA polymerase θ helicase domain (residues 1-894), O75417 1-894 (domain or fragment)
chain: MNLLRRSGKRRRSESGSDSFSGSGGDSSASPQFLSGSVLSPPPGLGRCLKAAAAGECKPTVPDYERDKLLLANWGLPKAVLEKYHSFGVKKMFEWQAECLLLGQVLEGKNLVYSAPTSAGKTLVAELLILKRVLEMRKKALFILPFVSVAKEKKYYLQSLFQEVGIKVDGYMGSTSPSRHFSSLDIAVCTIERANGLINRLIEENKMDLLGMVVVDELHMLGDSHRGYLLELLLTKICYITRKSASCQADLASSLSNAVQIVGMSATLPNLELVASWLNAELYHTDFRPVPLLESVKVGNSIYDSSMKLVREFEPMLQVKGDEDHVVSLCYETICDNHSVLLFCPSKKWCEKLADIIAREFYNLHHQAEGLVKPSECPPVILEQKELLEVMDQLRRLPSGLDSVLQKTVPWGVAFHHAGLTFEERDIIEGAFRQGLIRVLAATSTLSSGVNLPARRVIIRTPIFGGRPLDILTYKQMVGRAGRKGVDTVGESILICKNSEKSKGIALLQGSLKPVRSCLQRREGEEVTGSMIRAILEIIVGGVASTSQDMHTYAACTFLAASMKEGKQGIQRNQESVQLGAIEACVMWLLENEFIQSTEASDGTEGKVYHPTHLGSATLSSSLSPADTLDIFADLQRAMKGFVLENDLHILYLVTPMFEDWTTIDWYRFFCLWEKLPTSMKRVAELVGVEEGFLARCVKGKVVARTERQHRQMAIHKRFFTSLVLLDLISEVPLREINQKYGCNRGQIQSLQQSAAVYAGMITVFSNRLGWHNMELLLSQFQKRLTFGIQRELCDLVRVSLLNAQRARVLYASGFHTVADLARANIVEVEVILKNAVPFKSARKAVDEEEEAVEERRNMRTIWVTGRKGLTEREAAALIVEEARMILQQDLVEM
[1]
  stoichiometry N: 2 and 4
[2]
  stoichiometry N: 2
[3]
  stoichiometry N: 2
